For test [1], the target named is T1, recombinant human CD3 epsilon/delta heterodimer (human, UniProt P07766 23-126; P04234 22-105).
T1 construct: Recombinant heterodimer used as analyte in Octet; also called hCD3 E/D; human CD3E/D
Kind of test: BLI (Octet), mAb 5 ug/mL on FAB2G sensor, hCD3 E/D 200-50 nM. (In BLI a coated tip is dipped into the sample, and binding shifts an interference pattern.)
Experimental: (§1) Samples were evaluated by flow cytometry analysis against Jurkat and human Pan-T cells (FIG. 1B) as well as by Octet against recombinant human CD3 proteins to evaluate apparent affinities and binding off-rates (Table 6, infra).

The target in test [2] is T2, recombinant human CD3 epsilon/gamma heterodimer (human, UniProt P07766 23-126; P09693 23-116).
T2 construct: Recombinant heterodimer used as analyte in Octet; also called hCD3 E/G
T2 sequence (P07766 23-126, chain 1 of 2): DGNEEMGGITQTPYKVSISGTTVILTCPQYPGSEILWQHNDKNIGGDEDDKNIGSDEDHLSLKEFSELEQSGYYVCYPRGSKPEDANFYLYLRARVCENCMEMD
T2 sequence (P09693 23-116, chain 2 of 2): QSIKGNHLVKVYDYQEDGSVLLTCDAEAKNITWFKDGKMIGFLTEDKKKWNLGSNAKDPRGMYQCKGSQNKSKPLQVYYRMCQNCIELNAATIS
The test can be described thus: BLI (Octet), mAb 5 ug/mL on FAB2G sensor, hCD3 E/G 200-50 nM.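 Further: antibodies purified from hybridoma supernatants, measured by Octet binding to recombinant human CD3 protein.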
Experimental: as §1

Some results are limits rather than exact numbers.

The Kd is the constant that tells how readily two partners part at equilibrium. What is called koff is the first-order rate constant of dissociation. In general, kon refers to a measure of how fast the partners come together.

T1 sequence (P07766 23-126, stated change not applied, chain 1 of 2): as the sequence (P07766 23-126, chain 1 of 2) above
T1 sequence (P04234 22-105, stated change not applied, chain 2 of 2): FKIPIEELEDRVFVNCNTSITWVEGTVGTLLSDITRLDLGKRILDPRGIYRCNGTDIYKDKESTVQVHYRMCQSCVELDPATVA

B1: ABL-CD3-67 (antibody, V domains shown)
VH: EVQLVESGGGLVKPGGSLRLSCAASGFTVSSYSMNWVRQAPGKGLEWVSSISRSSSYIYYADSVKGRFTISRDNAKNSLFLQMNSLRAEDTAVYYCARERWELLYFDYWGQGTLVTVSS
VL: NFMLTQPHSVSESPGKTVTISCTRSSGSIASNYVQWYRQRPGSSPTTVIYEDNQRPSGVPDRFSGAIDSSSTSASLTISGLKTEDEADYYCQSYDSSNRVFGGGTKLTVL
notes: mAb purified from hybridoma; chimeric AlivaMab IgG (human VH, CH1 and upper hinge; mouse middle hinge, CH2, CH3; human light chain)
Consider B1, for which, in test [1], the Kd was found to be 53.3 nM, the Response amounted to 0.58, the koff stood at 0.00485 s⁻¹ and the kon worked out at 90800 M⁻¹ s⁻¹. Moreover, in test [2], the Kd turned out to be 109 nM, the Response was 0.26, the koff was 0.0178 s⁻¹ and the kon was determined as 163000 M⁻¹ s⁻¹.

B2: ABL-CD3-68 (antibody, V domains shown)
VH: EVQLVESGGGLVKPGGSLRLSCAASGFTFSSSIMNWVRQAPGKGLEWVSSISGSSSYIYYADSVKGRFTISRDNAKNSQYLQMKSLRAEDTAVYYCARERWNLLYFDYWGQGTLVTVSS
VL: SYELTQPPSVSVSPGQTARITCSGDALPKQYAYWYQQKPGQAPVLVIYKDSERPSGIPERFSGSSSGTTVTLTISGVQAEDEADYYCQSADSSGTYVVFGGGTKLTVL
notes: as for B1
As for B2, in test [1], the Kd was 4.2 nM, the Response is 0.3, the koff worked out at 0.000973 s⁻¹ and the kon was 232000 M⁻¹ s⁻¹. In addition, in test [2], the Kd is 6.43 nM, the Response was found to be 0.28, the koff turned out to be 0.00157 s⁻¹ and the kon was determined as 244000 M⁻¹ s⁻¹.

B3: ABL-CD3-73 (antibody, V domains shown)
VH: EVQLVESGGGLVKPGGSLRLSCAASGFTITSYSMNWVRQAPGKGLEWVSTFSRSSTYIYYADSVKGRFTISRDNAKNSLYLQMNSLRAEDTAVYYCAREKWDLLYFDYWGQGTLVTVSS
VL: NFMLTQPHSVSESPGKTVTISCTRSSGSIASNYVQWYQQRPGSSPTTVIYEDNRRPSGVPDRFSGSIDSSSNSASLTISGLKTEDEADYYCQSYDNSNRVFGGGTTLTVL
notes: as for B1
In the case of B3, in test [1], the Kd is 1.26 nM, the Response was 1.02, the koff came out at 0.0001 s⁻¹ and the kon was determined as 79700 M⁻¹ s⁻¹. In test [2], the Kd was found to be 6.12 nM, the Response came out at 0.99, the koff was determined as 0.000472 s⁻¹ and the kon amounted to 77000 M⁻¹ s⁻¹.

B4: ABL-CD3-69 (antibody, V domains shown)
VH: EVQLVESGGGLVKPGGSLRLSCAASGFTFSTYTMNWVRQAPGKGLEWVSTITSSSRYIYYADSVKGRFTISRDNAKNSLYLQMNSLRAEDTAVYYCARVTFDAFDIWGQGTMVTVSS
VL: NFMLTQPHSVSESPGKTVTISCTRSSGSIASNYVQWYQQRPGSSPTTVIYEDNQRPSGVPDRFSGSIDSSSNSASLTISGLKTEDEADYYCQSYDSSNRVFGGGTKLTVL
notes: as for B1
Consider B4, for which, in test [1], the equilibrium dissociation constant (Kd) worked out at 8.14 nM, the Response is 0.87, the koff amounted to 0.000851 s⁻¹ and the kon worked out at 105000 M⁻¹ s⁻¹. In addition, in test [2], the Kd was found to be 3.73 nM, the Response came out at 0.88, the koff came to 0.000321 s⁻¹ and the kon was 86100 M⁻¹ s⁻¹.

B5: ABL-CD3-78 (antibody, V domains shown)
VH: EVQLVESGGGLVKPGGSLRLSCAASGFTVSNYSMNWVRQAPGKGLEWVSCISRSSSYIYYADSVKGRFTISRDNAKNSLFLQMNSLRAEDTAVYYCARERWELLYFDYWGQGTLVTVSS
VL: NFMLTQPHSVSESPGKTVTISCTRSSGSIASNYVQWYQQRPGSSPTTVIYEDNQRPSGVPDRFSGSIDSSSNSASLTISGLKTEDEADYYCQSFDGSNRVFGGGTKLTVL
notes: as for B1
For the molecule B5, in test [1], the Kd is 6.64 nM, the Response was determined as 0.56, the koff was 0.000568 s⁻¹ and the kon is 85600 M⁻¹ s⁻¹. Besides, in test [2], the Kd is 21.4 nM, the Response was 0.5, the koff came out at 0.00157 s⁻¹ and the kon amounted to 73500 M⁻¹ s⁻¹.

B6: ABL-CD3-84 (antibody, V domains shown)
VH: EVQLVESGGGLVKPGGSLRLSCAASGFTFSNFIMNWVRQAPGKGLEWVSSISGSSNYIYYADSVKGRFTISGDNAKNSLYLQMNSLRAEDTAVYYCAREKWVLLFFDYWGQGTLVTVSS
VL: NFMLTQPHSVSESPGKTVTISCTRSSGSIASNYVQWYQQRPGSSPTTMIYEDTQRPSGVPDRFSGSIDSSSNSASLTISGLKTEDEADYYCQSYDSSNRVFGGGTKLTVL
notes: as for B1
B6: in test [1], the Kd came to 143 nM, the Response turned out to be 0.22, the koff was 0.0203 s⁻¹ and the kon was found to be 142000 M⁻¹ s⁻¹. Moreover, in test [2], the Kd is 145 nM, the Response came to 0.1, the koff was 0.0614 s⁻¹ and the kon turned out to be 424000 M⁻¹ s⁻¹.

B7: ABL-CD3-72 (antibody, V domains shown)
VH: EVQLVESGGGLVKPGGSLRLSCAASGFTFSTYIMNWVRQAPGKGLEWVSSISSSRSYIYYADSVKGRFTISRDNAKNSLYLQMNSLRAEDTAVYYCAREDRYRLFFDYWGQGTLVTVSS
VL: NFMLTQPHSVSESPGKTVTISCTRSSGSIASNYVQWYQQRPGSSPTTVIYEDNQRPSGVPDRFSGSIDSSSNSASLTISGLKTEDEADYYCQSYDSSNRVFGGGTKLTVL
notes: as for B1
With B7, in test [1], the Kd was 109 nM, the Response stood at 0.17, the koff worked out at 0.07 s⁻¹ and the kon came to 641000 M⁻¹ s⁻¹. In addition, in test [2], the Kd was found to be 442 nM, the Response was 0.09, the off-rate constant (koff) amounted to 0.211 s⁻¹ and the kon is 476000 M⁻¹ s⁻¹.

B8: ABL-CD3-77 (antibody, V domains shown)
VH: EVQLVESGGGLVKPGGSLRLSCAASGFTFSSYSMNWVRQAPGKGLEWVSSISSSSSYIYYADSVKGRFTISRDNAKNSLYLQMNSLRAEDTAVYYCARDGELGIGTYFDYWGQGTLVTVSS
VL: QSVLTQPPSVSGAPGQRVTISCTGSSSNIGAGYDVHWYQQLPGTAPKLLIYGNSNRPSGVPDRFSGSKSGTSASLAITGLQAEDEADYYCQSYDSSLSGSVFGGGTKLTVL
notes: as for B1
Regarding B8, in test [1], the Kd was less than 0.001 nM, the Response was 0.01 and the koff stood at 0.0135 s⁻¹. Further, in test [2], the Kd is less than 0.001 nM, the Response was -0.01, the koff is less than 1e-07 s⁻¹ and the kon turned out to be 50000 M⁻¹ s⁻¹.

B9: ABL-CD3-74 (antibody, V domains shown)
VH: EVQLVESGGGLVKPGGSLRLSCAASGFTFSSYSMKWVRQAPGKGLEWVSSISSSSSYIYYADSVKGRFTISRDNAKNSLYLQMNSLRAEDTAVYYCARDRGELTLWYWGQGTLVTVSS
VL: SYELTQPPSVSVSPGQTARITCSGDALPKKYAYWYQQKSGQAPVLVIYEDSKRPSGIPERFSGSSSGTMATLTISGAQVEDEADYYCYSTDSSGNHWVFGGGTKLTVL
notes: as for B1
On to B9, for which, in test [1], the Kd was determined as 55.6 nM, the Response is 0.24, the koff was determined as 0.026 s⁻¹ and the kon stood at 467000 M⁻¹ s⁻¹. Further, in test [2], the Kd worked out at 124 nM, the Response amounted to 0.13, the koff was determined as 0.0609 s⁻¹ and the kon is 492000 M⁻¹ s⁻¹.

B10: ABL-CD3-82 (antibody, V domains shown)
VH: EVQLVESGGGLVKPGGSLRLSCAASGFTFSSYSMNWVRQAPGKGLEWVSSISSSSSYIYYADSVKGRFTISRDNAKNSLYLQMNSLRAEDTAVYYCARDRRELLLDYWGQGTLVTVSS
VL: SYELTQPPSVSVSPGQTARITCSGDALPKKYAYWYQQKSGQAPVLVIYEDSKRPSGIPERFSGSSSGTMATLTISGAQVEDEADYYCYSTDSSGNHSWVFGGGTKLTVL
notes: as for B1
For the molecule B10, in test [1], the Kd was found to be 10.6 nM, the Response came out at 0.02, the off-rate constant (koff) turned out to be 0.00192 s⁻¹ and the kon was 182000 M⁻¹ s⁻¹. In addition, in test [2], the dissociation constant Kd is 3.18 nM, the Response came to 0.02, the koff came to 0.00197 s⁻¹ and the kon came to 620000 M⁻¹ s⁻¹.

B11: ABL-CD3-80 (antibody, V domains shown)
VH: EVQLVESGGGLVKPGGSLRLSCAASGFTFSGYSMNWVRQAPGKGLEWVSSISSRSRYIYYADSVQGRFTISRDNSKNSLFLQMNSLRAEDTAVYYCGRDWRELLLDYWGQGTLVTVSS
VL: SYELTQPPSVSVSPGQTARITCSGDALPKKYAYWYQQKSGQAPVLVIYEDSKRPSGIPERFSGSSSGTMATLTISGAQVEDEADYYCYSTDSSGNHSWVFGGGTKLTVL
notes: as for B1
B11: in test [1], the Kd was determined as 125 nM, the Response turned out to be 0.36, the koff was found to be 0.0108 s⁻¹ and the kon is 86200 M⁻¹ s⁻¹. Besides, in test [2], the Kd turned out to be 148 nM, the Response amounted to 0.11, the koff turned out to be 0.036 s⁻¹ and the kon is 243000 M⁻¹ s⁻¹.

B12: ABL-CD3-75 (antibody, V domains shown)
VH: EVQLVESGGGLVKPGGSLRLSCAASGFTFSTYSLNWVRQAPGKGLEWVSSISVSSRYIYFADSVKGRFTISRDNAKNSLYLQMNSLRAEDTAVYYCARDRRELLLDYWGQGTLVTVSS
VL: SYELTQPPSVSVSPGQTARITCSGDALPKKYAYWYQQKSGQAPVLVIYEDSKRPSGIPERFSGSSSGTMATLTISGAQVEDEADYYCYSTDSSGNHNWVFGGGTKLTVL
notes: as for B1
Regarding B12, in test [1], the Kd amounted to 29.6 nM, the Response stood at 0.56, the koff was 0.00726 s⁻¹ and the kon was found to be 245000 M⁻¹ s⁻¹. For the same molecule, in test [2], the Kd was determined as 159 nM, the Response turned out to be 0.19, the koff is 0.0593 s⁻¹ and the kon stood at 373000 M⁻¹ s⁻¹.

B13: ABL-CD3-76 (antibody, V domains shown)
VH: EVQLVESGGGLVKPGGSLRLSCAASGFTFSNYYMNWVRQAPGKGLERVSSISSSSNYIYYADSVKGRFTISRDNAKNSLYLQMNSLRAEDTAVYYCARDRRELPLDYWGQGTVVTVSS
VL: SYELTQPPSVSVSPGQTARITCSGDALPKKYAYWYQQKSGQAPVLVIYEDSKRPSGIPERFSGSSSGTMATLTISGAQVEDEADYYCYSTDSSGNHWVFGGGTKLTVL
notes: as for B1
For the molecule B13, in test [1], the Kd was determined as 48.2 nM, the Response worked out at 0.53, the dissociation rate constant (koff) came out at 0.0125 s⁻¹ and the kon stood at 260000 M⁻¹ s⁻¹. Besides, in test [2], the Kd stood at 134 nM, the Response came to 0.24, the koff turned out to be 0.0461 s⁻¹ and the kon was 345000 M⁻¹ s⁻¹.

The values above are taken from patent US20260167721A1 (ABLEXIS, published 2026).
